Test results published in the RNAGym collection of RNA variant scans (doi:10.1093/molbev/msab373).

B1: Azoarcus group I ribozyme (parent)
chain: GUGCCUUGCGCCGGGAAACCACGCAAGGGAUGGUGUCAAAUUCGGCGAAACCUAAGCGCCCGCCCGGGCGUAUGGCAACGCCGAGCCAAGCUUCGGCGCCUGCGCCGAUGAAGGUGUAGAGACUAGACGGCACCCACCUAAGGCAAACGCUAUGGUGAAGGCAUAGUCCAGGGAGUGGCGAAAGUCACACAAACCGG

Variants of: B1
Experiment: reverse-splicing fitness (ratio to wild type); higher = more active; in vitro selection; Mg2+ level not given
Outline: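 An in vitro group I ribozyme library with randomized positions was T7-transcribed and gel-purified. In triplicate, 10 pmol RNA in EPPS pH 7.5 was reacted with 50 pmoles of a 30-nt RNA substrate for 1 h at 37 °C across several added MgCl2 levels (1–48 mM), then stopped with EDTA. Products were reverse transcribed from a substrate-complementary primer, PCR-amplified and sequenced (HiSeq 4000). Fitness is a variant's read proportion after selection over that before, normalised to wild type.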

Variant	reverse-splicing fitness
C82U A111U A120U A145U C150G C169G	0.00274
C82U A111U A120U A145U C150G C169U	0.00272
C82U A111U A120U A145U C150G C169A	0.0034
C82U A111U A145G C169G U176C	0.027
C82U A111U A145G C169G U176A	0.0207
C82U A111U A145G C169G U176G	0.00528
C82U A111U A120U C150A C169A U176A	0.00372
C82U A111U A120U C150A C169A U176C	0.00306
C82U A111U A120U C150A C169A U176G	0.00224
C82U A111U A145U C150A C169G U176A	0.011
C82U A111U A145U C150A C169G U176G	0.00594
C82U A111U A145U C150A C169G U176C	0.0121
C82U A111U A145G C150A C169G U176A	0.0146
C82U A111U A145G C150A C169G U176C	0.0254
C82U A111U A145G C150A C169G U176G	0.00627
C82U A111U A145C C150A C169A U176A	0.00998
C82U A111U A145C C150A C169A U176G	0.00585
C82U A111U A145C C150A C169A U176C	0.00618
C82U A111U A145C U176C	0.141
C82U A111U A145C U176G	0.0247
C82U A111U A145C U176A	0.0966

Variant	reverse-splicing fitness
C82U A111U A120U C169G U176A	0.00316
C82U A111U A120U C169G U176G	0.00193
C82U A111U A120U C169G U176C	0.00303
C82U A111U A145U C150G C169G U176A	0.00698
C82U A111U A145U C150G C169G U176C	0.00578
C82U A111U A145U C150G C169G U176G	0.00587
C82U A111U A120U C150U C169A U176A	0.0038
C82U A111U A120U C150U C169A U176G	0.00205
C82U A111U A120U C150U C169A U176C	0.00314
C82U A111U A145U C150A C169U U176C	0.0118
C82U A111U A145U C150A C169U U176G	0.00593
C82U A111U A145U C150A C169U U176A	0.0133
C82U A111U A120U A145G C150G U176G	0.00324
C82U A111U A120U A145G C150G U176A	0.00562
C82U A111U A120U A145G C150G U176C	0.00721
C82U A111U A120U U176A	0.00769
C82U A111U A120U U176C	0.0117
C82U A111U A120U U176G	0.00321
C82U A111U A145C C150G C169A	0.00853
C82U A111U A145C C150G C169G	0.0072
C82U A111U A145C C150G C169U	0.00864

Variant	reverse-splicing fitness
C82U A111U A120U A145U C150A C169A U176G	0.00206
C82U A111U A120U A145U C150A C169A U176C	0.00283
C82U A111U A120U A145U C150A C169A U176A	0.00233
C82U A111U A120U A145G C150G C169G U176A	0.00749
C82U A111U A120U A145G C150G C169G U176G	0.00365
C82U A111U A120U A145G C150G C169G U176C	0.00477
C82U A111U A120U A145U C150U C169U	0.00365
C82U A111U A120U A145U C150U C169G	0.00343
C82U A111U A120U A145U C150U C169A	0.00254
C82U A111U A120U A145G C169U U176G	0.00207
C82U A111U A120U A145G C169U U176C	0.00323
C82U A111U A120U A145G C169U U176A	0.00304
C82U A111U A120U C169U U176G	0.0019
C82U A111U A120U C169U U176C	0.00325
C82U A111U A120U C169U U176A	0.00357
C82U A111U A120U A145U U176C	0.0111
C82U A111U A120U A145U U176A	0.00758
C82U A111U A120U A145U U176G	0.00339
C82U A111U A120U A145U C150U C169U U176C	0.00392
C82U A111U A120U A145U C150U C169U U176A	0.00293
C82U A111U A120U A145U C150U C169U U176G	0.00227

Variant	reverse-splicing fitness
C82U A111U A145G C150G C169G U176G	0.00579
C82U A111U A145G C150G C169G U176C	0.0116
C82U A111U A145G C150G C169G U176A	0.00984
C82U A111U A120U A145U C150U U176A	0.00665
C82U A111U A120U A145U C150U U176G	0.00324
C82U A111U A120U A145U C150U U176C	0.00855
C82U A111U A145C C150G C169G U176A	0.00901
C82U A111U A145C C150G C169G U176C	0.00693
C82U A111U A145C C150G C169G U176G	0.00581
C82U A111U A120U C150U C169G U176G	0.00205
C82U A111U A120U C150U C169G U176A	0.00732
C82U A111U A120U C150U C169G U176C	0.00317
C82U A111U A120U A145U C169G U176G	0.00176
C82U A111U A120U A145U C169G U176C	0.00286
C82U A111U A120U A145U C169G U176A	0.00244
C82U A111U A120U C150G C169G	0.00584
C82U A111U A120U C150G C169U	0.00478
C82U A111U A120U C150G C169A	0.00657
C82U A111U A145G C150U U176C	0.12
C82U A111U A145G C150U U176A	0.0765
